# Assay: soluble fraction after stress (log2 fold change); higher = more stays soluble; pooled small domains, quantitative proteomics
# Conditions: stress: pH 4
# Procedure, shortened: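 How much of each domain stays soluble after acid stress, expressed as a fold change, is used to gauge aggregation propensity. Pooled custom libraries of small domains underwent pH 4 stress before high-throughput quantitative proteomics. A higher log2 value means more of the domain stayed soluble.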
row,Sequence,soluble fraction (log2)
1,HMVGIAEAMKHIADEDYGDLSAIFKQIFSDTDGGRNFSDAIRTQMRSTDSSGLRKVLSTLIMSIEE,-0.854
2,HMEVADAAQRKILQALQVQPLTVEQLSQELRTDTGDLLVSLSMMEITGLIRREAGNTFLAVFAPK,-0.598
3,HMGQVSDETGLARVVDALLAAHPDEVAKYRAGKTSLLGWFMGQVMKETRGQANPDLARALVLERLE,-0.269
4,HMRSKTSYAVWTPIQIDAGSQMQALQSKGFNTVLMEGGISVGIRSDKAQAQALLNRLQGAGFTGQLREVN,0.259
5,HMANDNFPLKLGSKGPRVLQLKTMLIQSLSNDALPKGRSSDAFDSELEALLSRNNLPTVIDETNFRVLTK,0.0149
6,HMNVNALIGQEGIVIKEINSGSNKIGQVKISGDTWSAVTTNDFTNAIPVGSNVKILKIDGVNLIVEPVY,0.207
7,HMFPELTDDEQLIVSTLAKTNDMQINMLAVRTGIPVQRMSALLFSLEMKGVVKMYAGGTYHLL,-0.0499
8,HMGESFPYVAYATDSVRLRARPSSSATILTVIRKGDAVLITGADGSYKIVEYEGRKGYVVSAFLSSQET,-0.00452
9,HMFMSDDDIRILVKEWLQSQNRKSYQLAEEIGIRPQTFYAQMSVRKISANTKKALSRIIPGL,0.0503
10,HMEENIKKDIEVPNIEGLTIDEAKKRLKEVNLNISIEDMEEKEGTEIITQQLPKAGIKVKEGVAIIAY,-0.211
11,HMIAAPFVVKDIRVDGVQPATGEAIISSLPVKVGQTATDADVSNVVRQLFSLNRFQNVQATREGNTLVIKV,0.0417
12,HMTRTISKVAKELAINIETVRFYERRGLIEQPPKPELGYRHYPDETVNRIRFIKRAQELGFTLEEIANLLS,-1.21
13,HMNVAVPTPADKRKVRVMKADINAKLRVNDANGAYAVYEELKEWVTLKGFTEWNDDLSKLSETMGSMKRKV,-0.0387
14,HMRIWTISDLYKNVEDKKVSLAVFSEDNDSNKVNVLDINGEEHSVNLLKADLPTLVDLFRKNDVRFAVRSN,0.259
15,HMSQLLHELLAHVLKDRIISGEWPAGSRIMSEHALQERYGVSRGTVRRALAQLVQEGLLVQRKGKGTFVTR,0.35
16,HMGDGYTYYYDDTVLALGFTKIGNDYYIFNTFSGKMYKDATMWVNDNPYGIKGGMHYFDASGKMFV,-0.439
17,HMKIKLQATEQQRKTLDELYVQLKKLEPTSKEDLSLLYRLENPHLVSKQEAQGLISIAIGRVGSLAIEQQ,0.258
18,HMDLGEQIIEKLRAAGGFLAITDKSPAEEIYELFATSKKNYKKAVGGLYKKGLLVIEDDGIRLTPAGR,≥ 0.43
19,HMKKQLTISDGDWAGKVSSMLEDMGVINSASEFDKYLSDNGYSNVIKSGTYDVSPEDTFQELAEKIT,-1.05
20,HMRGPDLSKDFHEYISSQWMFFGRNAYQIAEQINKDTQLMSKYGKTTPSGVHYHIKQIQQEMEN,-0.984
21,HMLKFPIGTHVGKKKPSANLSLPNKHGVVIGHGERRNAKGAIMRFYIVETTHSSRPEEWAPGITYPL,-0.275
22,HMPPPTLVESAYNHLKADIISSYLKPDEKINLKDLSQRYQVSETPIKQALNRLISEGLIISVPRKGMWVH,0.065
23,HMAPAILTVQVKPDKIREIIGPGGKMIRMIQSETNTRVEVDDSGLVKIAAVSKEEGEAALKMVSDITME,-0.177
24,HMGEPVNSPMPGTILRVEVTQGAAVKEGQLLVVLEAMKMENEILAPKDGTVAQVVVQKGSHVETGSPLIVL,-0.429
25,HMRGIPEEVADVAIQWVARLDSNEISDADRAAFFAWLDASPINRWAYNDISESWAKLSILNEMGH,-1.8
26,HMLISDENMLRDLVQAVLDENPKSVSDYKSGKTKAFGFLVGQTMKAVKGQADPMLVNKILTELLN,-0.0698

row,Sequence,soluble fraction (log2)
1,HMKRTLLLEGRTIPYELTQKPVKNINIRVHADGSVRVSAGPWVSPEAVDAVLRQRSAFLLRALDQFAAQAP,-0.923
2,HMAAGELSGEALIALIERHPMALSALATTFGHSESDLRAFVEPLARQGRLRLFESQGTLFVGGIG,0.00392
3,HMGFVTVTEVDTTADLKLARVYVSVLGPEEQWAKSFTALESARGFVWNWLRKHLDLRVTPQLAF,-1.74
4,HMAAHWANFLEALRAGRARRVLVARGVEGWLLKELERLGAPYTLVPRIELDTLLRTTHHQGIAAEVE,-0.748
5,HMDKKTMFNEALAKLVSYATAHDNLITMEDVKSFFNGLIDDDSQYKLIYDYLSINKIEIKGFT,-0.704
6,HMLSTGQLIRYYRKRAGMTQAELAEEVEMSEPGIRNYELGNRTPSKAQLSAIARGLGIEPEALI,-0.0764
7,HMTTIPAGRQQYILSLIRREGTVTVSRLAQELEVSELTIRRDLDQMAARNLVERTHGGATERR,≥ 0.43
8,HMAPFVIQQGQDVRLISKGPGFAVSNDGKALTNAAEGQLARARTANGQTVSGIARQGGIIEIA,-0.068
9,HMHLTRYQYKVETEQEAVGLKELSSVHDLQIKENEATFQADSDAIDEILKTLLLYGVKKLEATPPTLED,-1.05
10,HMNNDFVERLRKLFGHASMAEIARRIDVPHATIRNYFQGRLPAPEVLIKLARETGVSLNWLLTGEGKMFA,-0.113
11,HMNVDSLVGSEARVTAEIDNRKETGTAMVNGQEWTARAESDEEIYPVGTIVEIRKIQGVKLIVSTH,0.18
12,HMQISMQNIASVKIDDLSDEQIQEFSTKYTAAGYSFPDVENVAKQKGMPSSEIEKLRQRVLTAQNTQEK,-0.346
13,HMAAVEDLPVKSVNGKKYHYYTVQPKESLYSLSHKLGISRQEIIKYNPGVEDGLKAYEDLLFPYTPK,-0.419
14,HMQEDQKTSIFDIEGVEKGVASVLSSIKVEIVSDLLEADMDDILKSGKISEDDLDGVYEAVQNFVER,-1.28
15,HMGVLSPRQSQILALVAQGLGNREIAERLHIAPTTARDHVQAIMRRLNVNSRAAAAVMGVKLGLI,0.085
16,HMLVYQRLDKDNFIFEGKTLLNDIYKILDIESNYFEAIRGEADSIAGLLLEIAKSIPTINTEF,-0.571
17,HMKRVPFAFAGDMLRWAAWLYHVEKRTQNEIAEELEVSRQTVANYLSEAMSQGLVQVQLRSDIIE,-1.39
18,HMTGMEKFLTIPSIRESTAAFEREYLIHYLDENAWQVSKTAAAIGIERTTLYKKMKQLGIVPIEE,-0.166
19,HMEANPLTDREKEVLELVADGKNTKEIAQELSIKSGTVRNYISMILEKLEVKNRIEAITRSKEKGWF,-0.025
20,HMKTLELIAAIRKRIAGGYAGADGRLPNIGEIAKDFSVSPMTAQKAVRALVEAGVLTSTRRKGVFLKQPAS,0.354
21,HMNPMLEPAGEIRLSDGVLLRWQSERLPGDDTVRGPGSLYELGLYRVKVRVSAPQQGVRESSVELAGWRQV,-0.212
22,HMDAYDEVTTLSQMVASGKNTTVAHLKHLKEYHQTDYLRQAVEWLLSNRKNVSFSVDEVMQEVHN,-0.434
23,HMSTSFQVQVSVLDLRIRKEPTVKGQEVGKISKGIHTITETRSADGYTWGKLESGQGWIALEFTTKLD,0.0132
24,HMGYDVAEVKFRLIKLLRDSKIGISGVEISERLGINRVTMTKYLNIFSAEGVIGEKNIGNVNLWFVYEGIE,-0.186
25,HMINRPVYVPLYTNLDVKDAAEIAEKLEENNIAYKLEDQGETILVNPEQKYKVRLMLAQEGLPKG,0.168
26,HMKLHPRDQERTRAISARGERLYAVTVGDLRRRIGEMLEWFGRQIESQEPMRVAKAARRITDFFDQVEAFT,-2.15

row,Sequence,soluble fraction (log2)
1,HMFASSADGVEGLKTNPIFASTKEKSDAGKLLYTRYLAIGIFRMLELAKATDPKALEALVEAGG,0.147
2,HMGRRSKAMLSSALDAVPGLGEMRRKALISQFGSLKKLRGATPEEIAAVPGIGPKLAAAVHEAVSG,0.131
3,HMKKKSYIVSFATDEDAQRFAREGFEVISLSGRQITVSLKGEMMPLVKALGSYQVVGLETVA,-0.72
4,HMGIAEAKRVIVRTLHDVLGPEADFLTEKIDVAQTAAELRVHAEKYRDMLVDMGKPKKSAAFWEAFEAALP,-0.65
5,HMDYHTIQTGDKGDEVLRLQQALAEYGYYEGDLDGRFGQQTRRAVERFQYSHGLTADGIAGRNTLSVLYD,-0.051
6,HMKFLHLADLHLGKRVNGFSMLEDQAYILRQILTILDDERPDGVLIAGDVYDKPVPPTEAVELLD,-0.632
7,HMSLTGFYNLTFKQADRLSVIDEAGEEVYKQAIAMGSTTKTIDLSALNAGVYFIRIYNGEVIAQEKIVLN,-0.958
8,HMEEQELQLIQFPIASGSAWAGKAVRELILPPETLLVMLIRGTETMIPKGDTMVQEGDTAVLSASAYRDD,-1.61
9,HMPDPVHAAYLRLAVLLTEQAIGPQVTEQQIRDRFALTRRQTSDLMGRLIREGIAEKRAGYGWNINTELTA,-0.748
10,HMGGGFLVPSLVGKSLEEARSLSELRGFKLEVGDYVISSEYPAGRVTRQNPANGAKGQEGDVIKVEVSS,0.153
11,HMGPVDFYQMFISELQHLAEKPVTVDALIESTQLHKSQLTEWLKRAVDDGVVKKLNRPARFQVKNK,0.136
12,HMHDAKTQLQEEAARRGLPAPVYTRIGQEGPDHAPRFRVRADVGPHQAEAVAGSLKLAQAEAARAILRQMP,0.28
13,HMLDKIRTYIDNSFTGVNETKKVKELKDELFENLKEKYNDQIQDGKTEQEAYNSVISGIGDLSELIESVK,-0.0804
14,HMPFREGDEVFVELVEPHMYNEDDAVAKLDGYVVAVRGAAGLVGQKVLVRIERVGRSSAEATLVA,-0.451
15,HMHYELTPDAEKQLSALGLTAELVERILEEANDRRPIPGTNRTVYSLHGYSVEFSNTNHKIVSVRKG,0.343
16,HMSSLSGVRRTLLDSLGMPPDASDEELADRREELRGSLDTAPQARRKWIEQQLARIDAITALDASG,-0.0243
17,HMINKQPKDYEYFLEKWHFTQTEKHQLHNLILKLNIRYPNKDFLKITENLDNGKLVLKKLEERLSKT,-0.7
18,HMVKFGERVKQLRLSAGMTQEQLAERIWVTKAAISNYELSERNPSPETIIKIAGVFGVTTDYLLGLED,-0.434
19,HMTPFVINVDRHGAVIINEKTVDIDEAVVLARQERSQGKSILLAGDKKAPYEAIIRVLDALKQAG,-0.464
20,HMRTEGNLGAKVRVLRRSQGMTQAELARRLGISPSYLNLIEHNRRSFTADLLVKLAKILPVNLKT,0.04
21,HMKRNTKAEVLEILLNSGETPVSGERLAENLGISRNAVWKAVTALKEDGYNISAKRNSGYILNKS,0.376
22,HMIEEIPYSQFMSMLEEGKIDKAEIYQDSIIFSTKPDEQGKAGYYSIAYMKDNVLADRLYDAGVEFTPII,-1.4
23,HMDKAGWLPARVRLADYPALKQLAWQVQGVDELTPREALGIYERNWRHLDEAALLPRERNLIDALRLAFG,-0.16
24,HMGDIMLLFKENGKVYFLVGNQYTYVKNPTELSAIKTMMKQAGYDTHEHTNTTQVAYIKRLATE,-0.419
